Here are results for five molecules from patent US12085574B2, “Method and means for diagnosing and treating allergy” (BIOMEDICAL INTERNATIONAL R+D GMBH, priority 2014, dated 2024).

A short description of test [1]: Iron-binding capacity of lipocalin allergens (quenching of autofluorescence). As to conditions: 2 μM allergen, 50UM siderophore (2,3, Dihydroxybenzoic Acid), iron III 0 to 50 μM; excitation/emission 280 and 340. As to the method: In this assay, 2 μM of allergen (in the example BLG) and 50UM of siderophores like 2,3, Dihydroxybenzoic Acid are incubated with increasing concentrations of iron III (Fe3+) ranging from 0 to 50 μM (x-axis in FIG. 5). Quenching of autofluorescence is measured at excitation and emission wavelengths of […] respectively in endpoint mode (y-axis in FIG. 5).

Test [2] relates to CD3+ cells of PMA-activated PBMCs. Description: CD4/CD8 expression and survival of PMA-activated PBMCs incubated with apo- or holo-lipocalin allergens (FACS). Type of test: cell-based, human. As to conditions: PBMCs pre-activated 24 h with PMA 0.75 ng/ml; allergen 100 μg/ml; holo = with catechol and iron; gated for CD3, 10000 CD3 cells recorded. The protocol: Cells were then stained for CD3-APC, CD8-PE, CD4-PE-CY7, 7AAD and Annexin V-FITC, gated for CD3 and analyzed by a FACS Canto II. Data acquisition was stopped when 10000 CD3 cells were recorded.
Apo-allergens were incubated with equimolar concentration of iron (ammonium iron (III) citrate, Sigma) and three-fold molar concentration of catechol, since 3 catechols are necessary for hexadental binding of iron in the LCN2-pocket against deionized water. Recombinant Bet v1a (Biomay, Vienna, Austria) was used as purchased
Blood was mixed with equal volumes of PBS containing 2% FCS before applying onto 10 ml Ficoll-Paque PLUS (GE Healthcare, Uppsala, Sweden), centrifugation at 400 g for 30 min without brake and washing the cells twice with 0,89% sodium chloride solution. Cells were then diluted to a concentration of 1Mio cells/ml in RPMI medium containing 10% FCS. Throughout the study FCS from the same lot was always used.
To PBMCs (0.5 Mio/test) a final concentration of 0.75 ng/ml PMA, 100 μg/ml apo-allergen (BLG, Alt a 1 and Bet v 1) with or without 10 μM catechol (Sigma) and 10 μM iron was added. For control purposes also tested without allergen or PMA. PMA each substance was determined in pre-experiments and considered concentration was optimal when cells were slightly downregulating surface CD4+ expression (7). […]

The next test relates to PMA-activated PBMCs. In words: Cytokine content (IL13, IFN-γ) of supernatants of PMA-activated PBMCs stimulated with apo-/holo-allergens (ELISA). Type of test: cell-based, human. As to conditions: PMA-activated PBMCs incubated for 18-24h; allergen 100 μg/ml with or without 10 μM catechol and 10 μM iron. The protocol:
To PBMCs (0.5 Mio/test) a final concentration of 0.75 ng/ml PMA, 100 μg/ml apo-allergen (BLG, Alt a 1 and Bet v 1) with or without 10 μM catechol (Sigma) and 10 μM iron was added. For control purposes also tested without allergen or PMA. PMA each substance was determined in pre-experiments and considered concentration was optimal when cells were slightly downregulating surface CD4+ expression (7). After 18-24h supernatants were collected and stored at −80° ° C. until further analysis.
LCN2 and the cytokine levels of IL13 and IFNγ were detected with commercially available kits according to the manufacturers' protocol. Sera were diluted 1:100 before determining LCN2-levels, whereas supernatants of 18-24h stimulation were used undiluted. Sensitivity of LCN2 assay is about 75 pg/ml and kits were purchased from R&D Systems (Minneapolis, MN, USA), whereas ELISAs for human IL13 and IFNγ were from ebioscience (Santa Clara, CA, USA), both assays having a reported sensitivity of 4 pg/ml.
For orientation: An ELISA detects its analyte on a solid surface through an enzyme-linked reagent.

As to “BLG: commercially available bovine beta-lactoglobulin, lipocalin allergen”, in test [1], the “Autofluorescence of the cavity (iron-binding)” value is on record as “quenched”.

B1: apoBetv1: recombinant Bet v 1a birch allergen, used as purchased, without siderophore-iron (protein, UniProt P15494 2-160, looked up)
Major pollen allergen Bet v …: GVFNYETETTSVIPAARLFKAFILDGDNLFPKVAPQAISSVENIEGNGGPGTIKKISFPEGFPFKYVKDRVDEVDHTNFKYNYSVIEGGPIGDTLEKISNEIKIVATPDGGSILKISNKYHTKGDHEVKAEQVKASKEMGETLLRAVESYLLAHSDAYN
B1: the “CD4 expression and survival” value in test [2] is recorded as “increase”. The “Th2-cytokines released upon stimulation (IL13 and IFN-γ analyzed)” value (“Th2-cytokines released upon stimulation” for short) in the test on PMA-activated PBMCs is listed as “released”.

B2: holoBetv1: recombinant Bet v 1a incubated with equimolar iron and three-fold molar catechol (protein, UniProt P15494 2-160, looked up)
Major pollen allergen Bet v …: GVFNYETETTSVIPAARLFKAFILDGDNLFPKVAPQAISSVENIEGNGGPGTIKKISFPEGFPFKYVKDRVDEVDHTNFKYNYSVIEGGPIGDTLEKISNEIKIVATPDGGSILKISNKYHTKGDHEVKAEQVKASKEMGETLLRAVESYLLAHSDAYN
modifications: iron and catechol complex
notes: recombinant Bet v 1a incubated with equimolar iron and three-fold molar catechol
As to B2, the “CD4 expression and survival” value in test [2] is given as “sharp contrast”. Moreover, the “Th2-cytokines released upon stimulation” value in the test on PMA-activated PBMCs is “not”.

B3: apo-Alt a 1: recombinant Alternaria alternata allergen Alt a 1, dialyzed against DFO, iron-free (protein, UniProt P79085 19-157, looked up)
Major allergen Alt a 1: APLESRQDTASCPVTTEGDYVWKISEFYGRKPEGTYYNSLGFNIKATNGGTLDFTCSAQADKLEDHKWYSCGENSFMDFSFDSDRSGLLLKQKVSDDITYVATATLPNYCRAGGNGPKDFVCQGVADAYITLVTLPKSS
As for B3, in the test with PMA-activated PBMCs, the “Th2-cytokines released upon stimulation” value is “released”.

B4: holo-Alt a 1: recombinant Alt a 1 incubated with equimolar iron and three-fold molar catechol (protein, UniProt P79085 19-157, looked up)
Major allergen Alt a 1: APLESRQDTASCPVTTEGDYVWKISEFYGRKPEGTYYNSLGFNIKATNGGTLDFTCSAQADKLEDHKWYSCGENSFMDFSFDSDRSGLLLKQKVSDDITYVATATLPNYCRAGGNGPKDFVCQGVADAYITLVTLPKSS
modifications: iron and catechol bound
notes: recombinant Alt a 1 incubated with equimolar iron and three-fold molar catechol
Consider B4, for which, in the test with PMA-activated PBMCs, the “Th2-cytokines released upon stimulation” value is given as “not”.
